Data from patent US20250250335A1 (SHENGHE CHINA BIOPHARMACEUTICAL, published 2025).
Like-named read-outs stand apart in the source and are kept apart here.

T1: CEACAM5 on the surface of the tumor cells (HPAFII cells) (UniProt P06731 35-685)
T1 construct: whole, on cells
T1 sequence (looked up): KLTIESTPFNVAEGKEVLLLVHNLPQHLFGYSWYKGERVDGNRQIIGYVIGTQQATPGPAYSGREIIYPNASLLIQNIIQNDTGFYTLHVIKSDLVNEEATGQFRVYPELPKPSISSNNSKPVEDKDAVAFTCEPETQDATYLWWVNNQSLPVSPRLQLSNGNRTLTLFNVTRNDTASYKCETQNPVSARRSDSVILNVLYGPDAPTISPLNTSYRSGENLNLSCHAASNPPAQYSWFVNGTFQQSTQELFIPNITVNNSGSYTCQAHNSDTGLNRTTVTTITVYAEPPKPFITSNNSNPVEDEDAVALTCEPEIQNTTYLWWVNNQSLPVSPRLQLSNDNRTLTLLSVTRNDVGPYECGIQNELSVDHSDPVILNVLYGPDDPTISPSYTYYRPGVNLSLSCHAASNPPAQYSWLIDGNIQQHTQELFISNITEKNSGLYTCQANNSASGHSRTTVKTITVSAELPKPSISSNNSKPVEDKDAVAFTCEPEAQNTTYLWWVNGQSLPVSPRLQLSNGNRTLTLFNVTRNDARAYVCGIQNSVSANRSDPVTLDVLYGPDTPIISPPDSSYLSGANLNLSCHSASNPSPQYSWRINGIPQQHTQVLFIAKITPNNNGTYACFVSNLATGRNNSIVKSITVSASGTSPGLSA

T2: CEACAM6 on the surface of the tumor cells (HPAFII cells) (UniProt P40199 35-320)
T2 construct: whole, on cells
T2 sequence (looked up): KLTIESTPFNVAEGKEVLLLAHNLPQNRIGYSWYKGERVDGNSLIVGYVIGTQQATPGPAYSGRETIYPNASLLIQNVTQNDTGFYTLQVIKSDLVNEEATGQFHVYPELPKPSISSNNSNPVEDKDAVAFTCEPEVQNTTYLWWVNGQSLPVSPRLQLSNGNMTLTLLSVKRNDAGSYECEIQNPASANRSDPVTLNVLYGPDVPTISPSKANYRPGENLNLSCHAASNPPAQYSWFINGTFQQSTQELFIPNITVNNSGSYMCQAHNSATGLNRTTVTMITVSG

T3: human CEACAM5-his (ACRO CE5-H5226) (human, UniProt P06731 35-685)
T3 construct: Bought protein; not shown: His tag
T3 sequence (looked up): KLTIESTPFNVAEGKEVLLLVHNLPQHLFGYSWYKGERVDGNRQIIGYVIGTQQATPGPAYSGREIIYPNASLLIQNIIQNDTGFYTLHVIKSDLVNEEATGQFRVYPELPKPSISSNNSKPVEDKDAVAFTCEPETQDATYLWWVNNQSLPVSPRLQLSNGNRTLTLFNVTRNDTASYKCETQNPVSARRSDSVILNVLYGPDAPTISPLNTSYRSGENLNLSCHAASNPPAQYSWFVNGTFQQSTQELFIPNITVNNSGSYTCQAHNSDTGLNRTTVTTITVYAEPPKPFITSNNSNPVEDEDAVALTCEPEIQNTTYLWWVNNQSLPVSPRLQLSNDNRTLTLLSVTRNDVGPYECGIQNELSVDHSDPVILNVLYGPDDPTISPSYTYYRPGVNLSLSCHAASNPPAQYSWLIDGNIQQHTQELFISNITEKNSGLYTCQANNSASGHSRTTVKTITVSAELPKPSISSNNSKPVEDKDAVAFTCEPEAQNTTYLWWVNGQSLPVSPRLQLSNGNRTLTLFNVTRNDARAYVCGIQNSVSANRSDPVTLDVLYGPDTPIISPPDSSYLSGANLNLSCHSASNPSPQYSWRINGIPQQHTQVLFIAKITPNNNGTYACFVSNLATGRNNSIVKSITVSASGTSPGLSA

T4: mouse CEACAM5 (mouse, UniProt Q3UKK2 35-947, limits assumed)
T4 sequence (looked up): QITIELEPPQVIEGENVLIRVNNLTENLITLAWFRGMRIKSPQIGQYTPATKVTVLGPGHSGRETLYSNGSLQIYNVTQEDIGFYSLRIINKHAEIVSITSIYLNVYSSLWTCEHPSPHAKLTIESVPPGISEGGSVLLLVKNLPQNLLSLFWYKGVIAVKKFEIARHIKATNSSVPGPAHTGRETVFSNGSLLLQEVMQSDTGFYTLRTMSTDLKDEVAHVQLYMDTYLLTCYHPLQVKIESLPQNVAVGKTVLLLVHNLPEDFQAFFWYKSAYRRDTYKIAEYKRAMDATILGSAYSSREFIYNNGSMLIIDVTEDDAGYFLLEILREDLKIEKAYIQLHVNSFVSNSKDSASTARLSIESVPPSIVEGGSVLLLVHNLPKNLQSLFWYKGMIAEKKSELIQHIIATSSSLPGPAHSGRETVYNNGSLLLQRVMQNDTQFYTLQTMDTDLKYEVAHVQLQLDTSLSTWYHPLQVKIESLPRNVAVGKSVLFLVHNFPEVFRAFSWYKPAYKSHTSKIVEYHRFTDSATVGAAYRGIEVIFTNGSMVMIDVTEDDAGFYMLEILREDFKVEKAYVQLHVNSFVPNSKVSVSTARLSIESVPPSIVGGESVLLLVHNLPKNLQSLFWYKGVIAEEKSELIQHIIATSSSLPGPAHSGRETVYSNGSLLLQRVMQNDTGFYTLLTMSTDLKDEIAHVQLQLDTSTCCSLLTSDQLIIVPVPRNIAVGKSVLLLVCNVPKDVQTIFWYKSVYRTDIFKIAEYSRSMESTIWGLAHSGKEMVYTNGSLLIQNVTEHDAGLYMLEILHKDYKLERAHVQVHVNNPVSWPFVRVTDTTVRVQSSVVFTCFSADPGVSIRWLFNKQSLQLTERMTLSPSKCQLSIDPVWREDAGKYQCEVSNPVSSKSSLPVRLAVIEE


Experiments:
[1] = target: T1, CEACAM5 on the surface of the tumor …; test: flow cytometry on HPAFII cells (Mean-FITC); the cells carry CEACAM5 and CEACAM6, signal not divided between the two
Method: (§1) The antibody to be tested was taken as the initial concentration of 200 nM and diluted 5-fold with 6 gradients. The HPAFII cells (From USTC […] FOR ADVANCED STUDIES) in the incubator were taken out, and the cell suspension was transferred to a 15 mL centrifuge tube, centrifuged, and counted by resuspension in PBS. A blank control group (Blank), a negative control group (NC), an experimental group, a positive control group and the irrelevant antibody group were kept. […] The cell suspension was spread in a 96-well plate according to about 3×10⁵ cells/well. Centrifugation (1000 rpm, 5 min) was performed, followed by washing with PBS, re-centrifugation, and repeated twice to remove media residues. The supernatant was discarded, 100 μL of primary antibody solution and irrelevant antibody solution were added to the experimental group and irrelevant antibody group, respectively, and the cells were resuspended and incubated at room temperature for 1 h. The blank group, and the negative control group were incubated with an equal amount of PBS.
(§2) After 1 h, PBS was added to wash twice. After the supernatant was discarded, 100 μL of fluorescent secondary antibody dilution (Mouse-derived secondary antibody from Abcam ab6785) was added to each sample group, except for the blank group which was added with 100 μL of PBS. After incubation at room temperature and protected from light for 0.5 h, centrifugation was performed and PBS added to wash the samples twice. After the supernatant was discarded, 120 μL of PBS was added to resuspend and sequentially flow cytometry was performed to detect the mean fluorescence intensity. The concentration of the antibody was logarithmically taken as the horizontal coordinate, and the Sigmoidaldose-response (VariableSlope) method (GraphPadPrism Software, GraphPadSoftware, San Diego, California) was chosen to perform a nonlinear regression to obtain the binding activity curves of the antibody on HPAFII cells.

[2] = target: T2, CEACAM6 on the surface of the tumor …; test: as above
Method: as §1, §2

[3] = target: T3, human CEACAM5-his (ACRO CE5-H5226); test: ELISA on coated human CEACAM5, OD450
Method: (§3) The binding activity of the antibodies to human CEACAM5, human CEACAM6, and human CEACAM6 (AB) proteins was detected by ELISA. The plate coated with proteins was incubated at 4° C. overnight, and the 96-well ELISA plate blocked with 2% PBS-BSA was added with the antibody to be detected and incubated at 37° C. for 1 h. After washing 3 times with PBS containing 0.05% Tween, the absorbance value of each well was read at wavelength 450 nm with the gradient-diluted mouse-derived candidate antibody as the primary antibody and anti-mouse-IgG-FC-HRP as the secondary antibody, and the absorbance value of each well was read at wavelength 450 nm after the TMB color development.

[4] = target: T3, human CEACAM5-his (ACRO CE5-H5226); test: ELISA on coated human CEACAM5, OD450; remark: listed apart in the source
Method: as §3

Human-CEACAM6 (AB)-His = target: T5, Human-CEACAM6 (AB)-His (human, UniProt P40199 145-314); test: ELISA on coated human CEACAM6 (AB), OD450
T5 construct: Made in house, purified on a nickel column
T5 sequence (P40199 other isoform, or with tags, fused parts or gaps limits assumed): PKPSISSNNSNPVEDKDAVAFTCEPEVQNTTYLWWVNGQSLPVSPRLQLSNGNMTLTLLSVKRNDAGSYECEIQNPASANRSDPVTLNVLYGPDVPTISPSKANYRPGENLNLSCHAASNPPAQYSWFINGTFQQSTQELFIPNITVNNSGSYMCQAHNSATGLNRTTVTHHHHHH
Method: as §3

mouse CEACAM5 = target: T4, mouse CEACAM5; test: ELISA on coated protein, OD450
Method: The affinity of the antibodies to monkey CEACAM5, monkey CEACAM6, and mouse CEACAM5 proteins was determined by ELISA. The plates encapsulated with […] proteins were incubated at 4° C. overnight, and the antibodies to be detected were added to 96-well ELISA plates after being blocked with 2% PBS-BSA and incubated at 37° C. for 1 h. After washing 3 times with PBS containing 0.05% Tween, the absorbance value of each well was read at wavelength 450 nm with the antibody to be detected as the primary antibody and Goat anti-mouse IgG-FC-HRP as the secondary antibody, and the absorbance value of each well was read at wavelength 450 nm after the TMB color development. The specific binding to CEACAM5 and CEACAM6 of mouse and monkey was detected by Elisa method.

[5] = target: T2, CEACAM6 on the surface of the tumor …; test: flow cytometry on HPAFII cells (Mean PE); the cells carry CEACAM5 and CEACAM6, signal not divided between the two
Method: Centrifugation (1000 rpm, 5 min) was performed, followed by washing with PBS, re-centrifugation, and repeated twice to remove media residues. The supernatant was discarded, 100 μL of primary antibody solution and irrelevant antibody solution were added to the experimental group and irrelevant antibody group, respectively, and the cells were resuspended and incubated at room temperature for 1 h. The blank group, and the negative control group were incubated with an equal amount of PBS.
as §2, with “(Secondary” for “(Mouse-derived secondary”, “ab98596)” for “ab6785)”

Binder	EC50 (read off the curve) [1]	EC50 (read off the curve) [2]	EC50 (read off the curve) [3]	other results
Antibody 4 (antibody, V domains shown, Mouse-derived hybridoma antibody; also called mouse-derived antibody 4) VH: QIQLVQSGPELKKPGETVKISCKASGYTFTDYSLHWVKQVPVKGLKWMGWINTETGEPTYADDFKGRFAFSLDTSASSAYLQIHNLKNEDTATYFCASPVSLLFYYFTVWGAGTTVTVSA VL: DIQMTQTTSSLSASLGDRVTISCRASQDISHFLNWYQQKPDGTVELLIYYTSRLLSGVPSRFSGSGSGTDYSLTIANLEQEDIATYFCQQGKTLPWTFGGGTKVEIK	~2 nM	~2 nM	~0.02 µg/mL	–
Antibody 12 (antibody, V domains shown, Mouse-derived hybridoma antibody; also called mouse-derived antibody 12) VH: EVKLVESGGGLVQPGGSLSLSCAVSGFIFTDYFMSWVRQPPGKTLEWLALIRNKANGYIIEYSESVKGRFTISRGNSQSIFYLQMNALRTEDSATYYCARDIGIRWNFDVWGAGTTVTVSS VL: QIVLTQSPAIMSASPGEKVTMTCSATSRVTYMHWYQQKSGTSPKRWIYATSTLASGVPARFSGSGSGTSYSLTISSMEAEDAATYYCQQWSYNPPTFGSGTKLEIK	–	–	–	EC50 (read off the curve) [4]: ~0.02 µg/mL; EC50 (read off the curve) (Human-CEACAM6 (AB)-His): ~0.009 µg/mL
Antibody 5 (antibody, V domains shown, Mouse-derived hybridoma antibody; also called mouse-derived antibody 5) VH: QIQLVQSGPELMKPGETVKISCKASGYTFTNYGMNWVKQAPGKGLKWLGWINTYTGKPTYADDIKERFVFSLETSASTAYLQINNLKNEDTATYFCARRDYRGWYFDVWGAGTPVTVSS VL: not shown	–	–	–	EC50 (read off the curve) (Human-CEACAM6 (AB)-His): ~0.04 µg/mL; binding result [3]: binds
Antibody E (antibody, human IgG1, kappa, V domains shown, humanized from mouse-derived antibody 2; also called humanized antibody E) VH: EVQLVESGGGLVQPGGSLRLSCATSEFTLIDYYMSWVRQAPGKALEWVGYIRNKVNGHTTDYIASVKGRFTISRDDSKNSLYLQMNSLKTEDTAVYYCVRDPGINWYFDVWGQGTLVTVSS VL: EIVLTQSPATLSLSPGERATLSCRASSRVTYMHWYQQKPGQSPRPLISATSNLASGIPARFSGSGSGTDYTLTISSLEPEDFAVYYCQQWSYNPPTFGGGTKLELKR	–	–	–	binding result [5]: binds
Antibody F (antibody, human IgG1, kappa, V domains shown, humanized from mouse-derived antibody 2; also called humanized antibody F) VH: EVQLVESGGGLVQPGGSLRLSCATSEFTLIDYYMSWVRQAPGKALEWVGYIRNKVNGHTTDYIASVKGRFTISRDDSKNSLYLQMNSLKTEDTAVYYCVRDPGINWYFDVWGQGTLVTVSS VL: QIVLTQSPATLSLSPGERATLSCRASSRVTYMHWYQQKPGSSPKPLISATSNLASGIPARFSGSGSGTDYTLTISSLEPEDFATYYCQQWSYNPPTFGGGTKLELKR	–	–	–	binding result [5]: binds

Further lines, with some results ahead:

EC50 (read off the curve) [1]	EC50 (read off the curve) [2]	EC50 (read off the curve) [3]	Binder	other results
~1 nM	~1 nM	~0.02 µg/mL	Antibody 3 (antibody, V domains shown, Mouse-derived hybridoma antibody; also called mouse-derived antibody 3) VH: EVQMVESGGGLVKPGGSLKLSCAASGFTFSDYYMYWVRQSPEKRLEWVATISDAGTYTSYLDSVKGRFIISRDNAKNNLYLQMSSLKSEDTAIYYCARNYYGSSPYGMDYWGQGTSVTVSS VL: QIVLTQSPAIMSASPGEKVTMTCSASSSVIYMHWYQQKSGTSPKRWIYDTSKLASGVPARFSGSGSGTSYSLTISSMEAEDAATYYCQQWSSHPLTFGAGTKLELK	–
~3 nM	~3 nM	~0.02 µg/mL	Antibody 2 (antibody, V domains shown, Mouse-derived hybridoma antibody; also called mouse-derived antibody 2) VH: EVKLVESGGGLVQPGGSLRLSCATSEFTLIDYYMSWVRQSPGKALEWLGYIRNKVNGHTTDYIASVKGRFAISRDNSQSILYLQMNTLRVEDSATYYCVRDPGINWYFDVWGAGTTVTVSS VL: QIVLSQSPAILSASPGEKVTMTCRASSRVTYMHWYQQKPGSSPKPWISATSNLASGVPARFSGSGSGTSYSLTISRVEAEDAATYYCQQWSYNPPTFGAGTKLELN	OD (mouse CEACAM5): 0.15 OD
